Results reported in article PMC8927147 (2022).
Ends that are not written are not given here. * marks the point of attachment. Bz = O=C(c1ccccc1)*

How the values were obtained:
Experiment in all cases: ITC
Hst2 = Hst2 (S. cerevisiae, UniProt P53686 1-357)
Taf14_(YEATS) = target: T1, Taf14_(YEATS) (S. cerevisiae, UniProt P35189 2-137)
T1 chain: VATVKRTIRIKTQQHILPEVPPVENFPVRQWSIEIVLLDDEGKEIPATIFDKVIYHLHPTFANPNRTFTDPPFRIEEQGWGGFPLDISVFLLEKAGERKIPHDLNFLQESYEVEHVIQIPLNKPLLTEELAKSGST

Sas5_(YEATS) = target: T2, Sas5_(YEATS) (S. cerevisiae, UniProt Q99314 2-139)
T2 chain: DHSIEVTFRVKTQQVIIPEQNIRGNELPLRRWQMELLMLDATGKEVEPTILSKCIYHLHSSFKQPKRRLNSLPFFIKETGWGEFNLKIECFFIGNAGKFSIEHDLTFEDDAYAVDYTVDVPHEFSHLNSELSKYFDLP

Sequence of Hst2 (P53686 whole entry): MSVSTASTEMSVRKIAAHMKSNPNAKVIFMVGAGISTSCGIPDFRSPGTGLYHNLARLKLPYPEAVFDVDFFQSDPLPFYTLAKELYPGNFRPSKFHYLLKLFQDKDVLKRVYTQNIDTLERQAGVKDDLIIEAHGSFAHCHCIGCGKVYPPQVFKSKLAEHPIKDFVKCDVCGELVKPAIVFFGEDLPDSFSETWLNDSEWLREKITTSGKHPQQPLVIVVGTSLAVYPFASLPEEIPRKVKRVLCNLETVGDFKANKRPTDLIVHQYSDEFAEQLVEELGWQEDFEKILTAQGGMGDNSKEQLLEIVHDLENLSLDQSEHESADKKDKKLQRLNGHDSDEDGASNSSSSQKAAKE

B1: H3K27bz peptide (peptide)
chain: KQLASKAARK(Bz)SAPSTGGVKY
**Q.** For B1, which Kd (Hst2) is on record?
**A.** The Kd was 6.13 µM.

**Q.** And the Kd (Taf14_(YEATS))?
**A.** Its Kd is 136 µM.

**Q.** And the Kd (Sas5_(YEATS))?
**A.** Its Kd is 92.6 µM.

B2: H3K23bz peptide (peptide)
chain: APRKQLASK(Bz)AARKSAPSTY
**Q.** With B2 as the binder, how does the Kd (Hst2) read?
**A.** The Kd was 14.8 µM.

**Q.** What about the Kd (Taf14_(YEATS)) of the same binder?
**A.** The Kd was 467 µM.

**Q.** What about the Kd (Sas5_(YEATS)) of the same binder?
**A.** Its Kd is 279 µM.

B3: H3K9bz peptide (peptide)
peptide: ARTKQTARKSTGGKAPRKQY
modifications: benzoyl-lysine (Kbz) at K9
**Q.** How did the Kd (Sas5_(YEATS)) turn out when B3 was run?
**A.** Its Kd is 178 µM.

B4: H3K18bz peptide (peptide)
chain: STGGKAPRKQLASKAARY
modifications: benzoyl-lysine (Kbz) at K18
**Q.** Which results are given for B4?
**A.** Kd (Hst2): 1.74 µM; Kd (Taf14_(YEATS)): 85.5 µM; Kd (Sas5_(YEATS)): 245 µM

B5: H3K14bz peptide (peptide)
chain: TARKSTGGK(Bz)APRKQLASY
**Q.** For B5, which Kd (Hst2) is on record?
**A.** Its Kd is 13.2 µM.

**Q.** And the Kd (Taf14_(YEATS))?
**A.** Its Kd is 385 µM.

**Q.** And the Kd (Sas5_(YEATS))?
**A.** The Kd was 100 µM.
